In patent publication US20260242419A1, “A CYCLIC PEPTIDE FOR TRAPPING INTERLEUKIN-1 BETA” (Merck Sharp & Dohme LLC, priority 2023, published 2026):
Starred links: 1 amine or outer side, 2 acyl side, 3 side chain; linkers in the order of their positions; H or OH if unused. Non-standard residues stand in square brackets, D forms with d. Primed or numbered codes have the meaning given here. AEFBz4Piperaz = (S)-2-amino-3-(4-(2-(4-(piperazin-1-yl)benzamido)ethoxy)phenyl)propanoic acid, O=C(NCCOc1ccc(C[C@H](N[*:1])C(=O)[*:2])cc1)c1ccc(N2CCN([*:3])CC2)cc1; AEF4AcPip4c = (S)-3-(4-(2-(1-acetylpiperidine-4-carboxamido)ethoxy)phenyl)-2-aminopropanoic acid, CC(=O)N1CCC(C(=O)NCCOc2ccc(C[C@H](N[*:1])C(=O)[*:2])cc2)CC1; AEF2PyrimCO = (S)-2-amino-3-(4-(2-(pyrimidine-2-carboxamido)ethoxy)phenyl)propanoic acid, O=C(NCCOc1ccc(C[C@H](N[*:1])C(=O)[*:2])cc1)c1ncccn1; AEF4PyrimCO = (S)-2-amino-3-(4-(2-(pyrimidine-4-carboxamido)ethoxy)phenyl)propanoic acid, O=C(NCCOc1ccc(C[C@H](N[*:1])C(=O)[*:2])cc1)c1ccncn1; AEFPyrzCO = (S)-2-amino-3-(4-(2-(pyrazine-2-carboxamido)ethoxy)phenyl)propanoic acid, O=C(NCCOc1ccc(C[C@H](N[*:1])C(=O)[*:2])cc1)c1cnccn1; AEFcHex = (S)-2-amino-3-(4-(2-(cyclohexanecarboxamido)ethoxy)phenyl)propanoic acid, O=C(NCCOc1ccc(C[C@H](N[*:1])C(=O)[*:2])cc1)C1CCCCC1; AEF4PyrCO = (S)-2-amino-3-(4-(2-(isonicotinamido)ethoxy)phenyl)propanoic acid, O=C(NCCOc1ccc(C[C@H](N[*:1])C(=O)[*:2])cc1)c1ccncc1; AEFPiv = (S)-2-amino-3-(4-(2-pivalamidoethoxy)phenyl)propanoic acid, CC(C)(C)C(=O)NCCOc1ccc(C[C@H](N[*:1])C(=O)[*:2])cc1; Bip4CONMe2″ = 4'-(dimethylcarbamoyl)biphenylalanine, CN(C)C(=O)c1ccc(-c2ccc(C[C@H](N[*:1])C(=O)[*:2])cc2)cc1; OrnMe3 = ornithine with side-chain trimethylammonium, C[N+](C)(C)CCC[C@H](N[*:1])C(=O)[*:2]; dPro(4R-(4-pyridylmethyl)) = O=C(O)[C@H]1C[C@@H](Cc2ccncc2)CN1; Trp(βS-Me,4-F) = C[C@@H](c1c[nH]c2cccc(F)c12)[C@H](N)C(=O)O; Bip(4'-CONH2) = NC(=O)c1ccc(-c2ccc(C[C@H](N)C(=O)O)cc2)cc1; Bip(4'-COOH) = N[C@@H](Cc1ccc(-c2ccc(C(=O)O)cc2)cc1)C(=O)O; dPro(4R-Bzl(4-F)) = O=C(O)[C@H]1C[C@@H](Cc2ccc(F)cc2)CN1; dPro(3S-(4-F-Bn)) = O=C(O)[C@@H]1NCC[C@@H]1Cc1ccc(F)cc1; Ala(pyrimidin-5-yl) = N[C@@H](Cc1cncnc1)C(=O)O; Phe(4-COOH) = N[C@@H](Cc1ccc(C(=O)O)cc1)C(=O)O; Lys(Me3) = C[N+](C)(C)CCCC[C@H](N)C(=O)O; Phe(4-Br) = N[C@@H](Cc1ccc(Br)cc1)C(=O)O; Pro(cis-4-F) = O=C(O)[C@@H]1C[C@H](F)CN1; Ala(4-THP) = N[C@@H](CC1CCOCC1)C(=O)O; d(αMeD) = C[C@@](N)(CC(=O)O)C(=O)O; 4Pal = N[C@@H](Cc1ccncc1)C(=O)O; Dab = NCC[C@H](N)C(=O)O; Aib = CC(C)(N)C(=O)O

B1: SEQ ID NO 295 (peptide)
peptide: cyclo([Bip4CONMe2″][4Pal][Phe(4-COOH)]G[Pro(cis-4-F)][Trp(βS-Me,4-F)][Aib]SW[d(αMeD)][Ala(4-THP)]Q[Dab]G[dPro(4R-(4-pyridylmethyl))])
modifications: ring closure inferred; not fully specified (N-terminus); printed as cyclic, Bip4CONMe2-4Pal-Phe4COOH-G-Proc4F-SbMeW4F-Aib-S-W-daMeD-AlaTHP4-Q-Dab-G-dProc4CH24Pal
B2: SEQ ID NO 296 (peptide)
peptide: cyclo([Bip(4'-CONH2)][4Pal][Phe(4-COOH)]G[Pro(cis-4-F)][Trp(βS-Me,4-F)][Aib]SW[d(αMeD)][Ala(4-THP)]Q[Dab]G[dPro(4R-(4-pyridylmethyl))])
modifications: ring closure inferred; not fully specified (N-terminus); printed as cyclic, Bip4CONH2-4Pal-Phe4COOH-G-Proc4F-SbMeW4F-Aib-S-W-daMeD-AlaTHP4-Q-Dab-G-dProc4CH24Pal
B3: SEQ ID NO 297 (peptide)
peptide: cyclo([Bip(4'-COOH)][4Pal][Phe(4-COOH)]G[Pro(cis-4-F)][Trp(βS-Me,4-F)][Aib]SW[Aib][OrnMe3]Q[Dab]G[dPro(4R-Bzl(4-F))])
modifications: ring closure inferred; not fully specified (N-terminus); printed as cyclic, Bip4CO2H-4Pal-Phe4COOH-G-Proc4F-sbMeW4F-Aib-S-W-Aib-OrnMe3-Q-Dab-G-dProc4Bn4F
B4: SEQ ID NO 298 (peptide)
peptide: cyclo([Bip(4'-COOH)][4Pal][Phe(4-COOH)]G[Pro(cis-4-F)][Trp(βS-Me,4-F)][Aib]SW[Aib][Lys(Me3)]Q[Dab]G[dPro(4R-Bzl(4-F))])
modifications: ring closure inferred; not fully specified (N-terminus); printed as cyclic, Bip4CO2H-4Pal-Phe4COOH-G-Proc4F-sbMeW4F-Aib-S-W-Aib-LysMe3-Q-Dab-G-dProc4Bn4F
B5: SEQ ID NO 299 (peptide)
peptide: cyclo([Phe(4-Br)][4Pal][Phe(4-COOH)]G[Pro(cis-4-F)][Trp(βS-Me,4-F)][Aib]SW[d(αMeD)][Ala(pyrimidin-5-yl)]Q[Dab]G[dPro(3S-(4-F-Bn))])
modifications: ring closure inferred; not fully specified (N-terminus); printed as cyclic, Phe4Br-4Pal-Phe4COOH-G-Proc4F-SbMeW4F-Aib-S-W-daMeD-PyrimAla-Q-Dab-G-dProc3Bn4F
B6: SEQ ID NO 302 (peptide)
peptide: cyclo([AEF4AcPip4c][4Pal][Phe(4-COOH)]G[Pro(cis-4-F)][Trp(βS-Me,4-F)][Aib]SW[Aib][Ala(pyrimidin-5-yl)]Q[Dab]G[dPro(4R-(4-pyridylmethyl))])
modifications: ring closure inferred; not fully specified (N-terminus); printed as cyclic, AEF4AcPip4c-4Pal-Phe4COOH-G-Proc4F-SbMeW4F-Aib-S-W-Aib-PyrimAla-Q-Dab-G-dProc4CH24Pal
B7: SEQ ID NO 303 (peptide)
peptide: cyclo([AEFPyrzCO][4Pal][Phe(4-COOH)]G[Pro(cis-4-F)][Trp(βS-Me,4-F)][Aib]SW[Aib][Ala(pyrimidin-5-yl)]Q[Dab]G[dPro(4R-(4-pyridylmethyl))])
modifications: ring closure inferred; not fully specified (N-terminus); printed as cyclic, AEFPyrzCO-4Pal-Phe4COOH-G-Proc4F-SbMeW4F-Aib-S-W-Aib-PyrimAla-Q-Dab-G-dProc4CH24Pal
B8: SEQ ID NO 304 (peptide)
peptide: cyclo([AEF2PyrimCO][4Pal][Phe(4-COOH)]G[Pro(cis-4-F)][Trp(βS-Me,4-F)][Aib]SW[Aib][Ala(pyrimidin-5-yl)]Q[Dab]G[dPro(4R-(4-pyridylmethyl))])
modifications: ring closure inferred; not fully specified (N-terminus); printed as cyclic, AEF2PyrimCO-4Pal-Phe4COOH-G-Proc4F-SbMeW4F-Aib-S-W-Aib-PyrimAla-Q-Dab-G-dProc4CH24Pal
B9: SEQ ID NO 305 (peptide)
peptide: cyclo([AEF4PyrimCO][4Pal][Phe(4-COOH)]G[Pro(cis-4-F)][Trp(βS-Me,4-F)][Aib]SW[Aib][Ala(pyrimidin-5-yl)]Q[Dab]G[dPro(4R-(4-pyridylmethyl))])
modifications: ring closure inferred; not fully specified (N-terminus); printed as cyclic, AEF4PyrimCO-4Pal-Phe4COOH-G-Proc4F-SbMeW4F-Aib-S-W-Aib-PyrimAla-Q-Dab-G-dProc4CH24Pal
B10: SEQ ID NO 306 (peptide)
peptide: cyclo([AEFBz4Piperaz][4Pal][Phe(4-COOH)]G[Pro(cis-4-F)][Trp(βS-Me,4-F)][Aib]SW[Aib][Ala(pyrimidin-5-yl)]Q[Dab]G[dPro(4R-(4-pyridylmethyl))])
modifications: ring closure inferred; not fully specified (N-terminus); printed as cyclic, AEFBz4Piperaz-4Pal-Phe4COOH-G-Proc4F-SbMeW4F-Aib-S-W-Aib-PyrimAla-Q-Dab-G-dProc4CH24Pal
B11: SEQ ID NO 307 (peptide)
peptide: cyclo([AEF4PyrCO][4Pal][Phe(4-COOH)]G[Pro(cis-4-F)][Trp(βS-Me,4-F)][Aib]SW[Aib][Ala(pyrimidin-5-yl)]Q[Dab]G[dPro(4R-(4-pyridylmethyl))])
modifications: ring closure inferred; not fully specified (N-terminus); printed as cyclic, AEF4PyrCO-4Pal-Phe4COOH-G-Proc4F-SbMeW4F-Aib-S-W-Aib-PyrimAla-Q-Dab-G-dProc4CH24Pal

molecular target: Recombinant human IL-1β (BioLegend 579404) (human, UniProt P01584 117-269); assay: cell-based or functional assay

Binder | MRC5 IC50 [nM]
B1 | 0.012
B2 | 0.013
B3 | 0.022
B4 | 0.015
B5 | 0.012
cyclo([AEFPiv][4Pal][Phe(4-COOH)]G[Pro(cis-4-F)][Trp(βS-Me,4-F)][Aib]SW[Aib][Ala(pyrimidin-5-yl)]Q[Dab]G[dPro(4R-(4-pyridylmethyl))]) (ring closure inferred; not fully specified (N-terminus)) [SEQ ID NO 300] | 0.013
cyclo([AEFcHex][4Pal][Phe(4-COOH)]G[Pro(cis-4-F)][Trp(βS-Me,4-F)][Aib]SW[Aib][Ala(pyrimidin-5-yl)]Q[Dab]G[dPro(4R-(4-pyridylmethyl))]) (ring closure inferred; not fully specified (N-terminus)) [SEQ ID NO 301] | 0.017
B6 | 0.017
B7 | 0.016
B8 | 0.014
B9 | 0.016
B10 | 0.02
B11 | 0.018
